± gives the standard deviation.

Here are results for 72 sequences from the supplement of paper PMC10567573.

This data set in a line: protein stability index of a GFP-peptide fusion (GPS, HEK-293T) (PSI 1-6); higher = more stable.
Where [1] appears, read: treatment: DMSO, c terminus: a fixed tail appended.
The mark [2] stands for this setting: treatment: MLN4924 1 uM, 8 h, c terminus: a fixed tail appended.
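Further: 24-mer peptide tiles fused after GFP, lentivirally expressed, FACS-sorted into six equal bins by GFP/DsRed ratio, decoded by Illumina sequencing, PSI is the read-weighted mean bin number.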

Consider STTTTTHITKTVKGGISETRIEKR [EPB41L3], for which the protein stability index by setting is: under setting [1], 4.86 ± 0.2; under setting [2], 5.01 ± 0.21.

STWLILHHKVYDLTKFLEEHPGGE [CYB5A]: the protein stability index runs as follows: under setting [1], 2.17 ± 0.29; under setting [2], 2.21 ± 0.32.

SVEAGGSVHFDGETIEGAPPLWAA [FEM1A]: the protein stability index is, setting by setting: under setting [1], 4.09 ± 0.15; under setting [2], 4.12 ± 0.48.

For SVFSARDRDPNSLLISCAVSYRGA [TNXB], the protein stability index runs as follows: under setting [1], 2.4 ± 0.22; under setting [2], 2.06 ± 0.16.

For SVLEQLELQEKQKNEKLISLQEQL [TAF7L], the protein stability index worked out at 4.24 ± 0.25 under setting [1] and 4.19 ± 0.3 under setting [2].

In the case of SVRRTRSKIGFGILLSKEPDGVWA [SMAD6], the protein stability index reads like this: under setting [1], 2.18 ± 0.12; under setting [2], 2.3 ± 0.12.

SWEVVRNPLIASSFSLVKLVLRRQ [C22orf31]: the protein stability index came to 2.52 ± 0.53 under setting [1] and 2.21 ± 0.28 under setting [2].

With SWREAKVSWFGSPTTSFLSISKLS [PWWP2B], the protein stability index came out at 2.15 ± 0.46 under setting [1] and 2.44 ± 0.43 under setting [2].

As for SWVTDMCKVGASSDPCGQLRPTLL [PNLIPRP1], the protein stability index under setting [1] came to 2.14 ± 0.38 and the protein stability index under setting [2] worked out at 2.34 ± 0.41.

With SYAFPKEFPYRMNHILECEFYLLE [CCNC], the protein stability index is, setting by setting: under setting [1], 2.24 ± 0.57; under setting [2], 2.7 ± 1.1.

The sequence TAEMARVLTDSNHVPLQRLSLLVH [FBXO33] registered a protein stability index under setting [1] of 2.83 ± 0.39 and a protein stability index under setting [2] of 2.79 ± 0.096.

With TALKKWMFLQLVPSWNGSLKQLLT [GMCL1], the protein stability index is, setting by setting: under setting [1], 2.74 ± 0.56; under setting [2], 2.43 ± 0.43.

On to TASSSYGKGEGPIWLDNLHCTGNE [LOXL2], for which the protein stability index reads like this: under setting [1], 3.91 ± 0.16; under setting [2], 3.91 ± 0.25.

Turning to TATTAPPALDIFGDLFESTPEVAA [SNAP91], the protein stability index under setting [1] came to 4.62 ± 0.29 and the protein stability index under setting [2] is 4.71 ± 0.2.

Regarding TCSSCLLRAPTISDLLNDQDLLDV [EDARADD], the protein stability index worked out at 2.57 ± 0.29 under setting [1] and 2.56 ± 0.43 under setting [2].

Take TDGSVLAAGTHDGSVYFWATPRQV [WSB1]: the protein stability index stood at 2.9 ± 0.18 under setting [1] and 2.89 ± 0.37 under setting [2].

With TEEEDRIICEAHKVLGNRWAEIAK [MYBL2], the protein stability index runs as follows: under setting [1], 3.85 ± 0.1; under setting [2], 3.92 ± 0.46.

Sequence TEGFTSGRHYWEVEVGDKTHWAVG [TRIM39] yielded a protein stability index under setting [1] of 2.85 ± 0.44 and a protein stability index under setting [2] of 2.93 ± 1.1.

TERLSHQITSRVVSAATQLRHFFL [RTN2]: the protein stability index reads like this: under setting [1], 4.1 ± 0.17; under setting [2], 4.08 ± 0.14.

For the sequence TETEATNSLITAPGEFSDASMSPD [SMAD6], the protein stability index came to 5.42 ± 0.2 under setting [1] and 5.28 ± 0.37 under setting [2].

Turning to TFDIDPMVVTDCIQVDPPERPPPP [MCOLN1], the protein stability index is, setting by setting: under setting [1], 4.69 ± 0.29; under setting [2], 4.89 ± 0.35.

Consider TFGDHHKDRRFAYGRSDVVVLCFS [RHOBTB1], for which the protein stability index is, setting by setting: under setting [1], 2.38 ± 0.53; under setting [2], 2.43 ± 0.55.

Turning to TFGNSTLALGPGESLPHRLSCLGQ [PLAGL1], the protein stability index runs as follows: under setting [1], 3.19 ± 0.18; under setting [2], 3.29 ± 0.18.

On to TFLPDNFSPAKPKPSKELKPLLGS [MYORG], for which the protein stability index turned out to be 3.52 ± 0.088 under setting [1] and 3.69 ± 0.28 under setting [2].

For TGELETLKERCAQDACQAQAREKE [CCDC89], the protein stability index runs as follows: under setting [1], 5.46 ± 0.31; under setting [2], 5.39 ± 0.2.

For TGNSLNEPEEPSEIPERRDSGVGA [DLC1], the protein stability index stood at 5.58 ± 0.19 under setting [1] and 5.59 ± 0.26 under setting [2].

On to TGTKKVTRILDGGNPFLDVPQALS [PSD2], for which the protein stability index worked out at 3.24 ± 0.36 under setting [1] and 3.4 ± 0.12 under setting [2].

For TGTPLVAGSPIRHENAVQGSAVEV [ISL2], the protein stability index is, setting by setting: under setting [1], 4.48 ± 0.22; under setting [2], 4.45 ± 0.18.

THLPKADIFALALTVVCAAGAEPL [WEE1]: the protein stability index is, setting by setting: under setting [1], 3.6 ± 0.35; under setting [2], 3.31 ± 0.26.

In turn, TIAAIDGLALGGGLELALACDIRV [AUH] showed a protein stability index under setting [1] of 2.39 ± 1.2 and a protein stability index under setting [2] of 2.33 ± 0.59.

For TIMSLASLLFVVMFIPETKGCSLE [SLC2A12], the protein stability index runs as follows: under setting [1], 3.37 ± 0.21; under setting [2], 3.33 ± 0.83.

In turn, TKGEEISVYVKLAGEREDLWAGSK [MIA2] gave a protein stability index under setting [1] of 3.36 ± 0.6 and a protein stability index under setting [2] of 3.83 ± 0.19.

Consider TKSPCESNNKKNDEMQEVPNRVLA [SPANXN3], for which the protein stability index is 5.22 ± 0.2 under setting [1] and 5.33 ± 0.19 under setting [2].

As for TLEELLPPNTRVLRVLPNLPCVVQ [PYCR3], the protein stability index by setting is: under setting [1], 2.28 ± 0.28; under setting [2], 2.1 ± 0.38.

For the sequence TLKIRNSNFYTVAVTSLSSQIQYM [TMEM106C], the protein stability index is, setting by setting: under setting [1], 2.23 ± 0.37; under setting [2], 2.13 ± 0.36.

Regarding TLLPWNFFMTATQYFTNRLDMSQN [SLC29A1], the protein stability index amounted to 2.9 ± 0.49 under setting [1] and 2.85 ± 0.37 under setting [2].

Consider TNALIGGPMPMSMPNVMTGTMGMA [CLINT1], for which the protein stability index worked out at 3 ± 0.16 under setting [1] and 3.03 ± 0.18 under setting [2].

With TNEKMLKAVFGKHGPISEVLLIKD [RBMY1A1], the protein stability index amounted to 2.82 ± 0.24 under setting [1] and 2.96 ± 0.15 under setting [2].

For TNTLTRIAENGVSERDSEAAKQNH [EHMT1], the protein stability index by setting is: under setting [1], 5.41 ± 0.18; under setting [2], 5.26 ± 0.29.

Take TPFLTNHGAHKAEKKLFECLTCGK [ZNF263]: the protein stability index is, setting by setting: under setting [1], 3.32 ± 0.34; under setting [2], 3.53 ± 0.67.

As to TPLIQQRARDSPEPGAGLGIGDMA [PSD2], the protein stability index was found to be 4.55 ± 0.24 under setting [1] and 4.37 ± 0.12 under setting [2].

With TPRGPDPALLEATGGAAGAGGAGR [KCTD13], the protein stability index is, setting by setting: under setting [1], 5.13 ± 0.23; under setting [2], 5.18 ± 0.21.

Take TRGHAISILFGFWTSFICDTYIVL [SMIM2]: the protein stability index reads like this: under setting [1], 2.73 ± 0.4; under setting [2], 2.78 ± 0.46.

On to TRHLKRLALMIQSSGNTVLLLILC [TMEM192], for which the protein stability index came out at 2.55 ± 0.41 under setting [1] and 2.35 ± 0.29 under setting [2].

In turn, TRKHAHHCHKRRTRSCSSASSRSQ [CLK3] yielded a protein stability index under setting [1] of 4.65 ± 0.2 and a protein stability index under setting [2] of 4.82 ± 0.19.

TRPSGNNGNRRRRKLRKTVNGDGS [PHTF1]: the protein stability index is, setting by setting: under setting [1], 4.83 ± 0.2; under setting [2], 5.03 ± 0.12.

Take TRRRAVGWWKRLFTLKEEKPKMYF [ARL6IP1]: the protein stability index by setting is: under setting [1], 2.25 ± 0.39; under setting [2], 2.11 ± 0.32.

As to TRVNLSSDTESTDLPSSTPVANSG [DLC1], the protein stability index amounted to 5.05 ± 0.1 under setting [1] and 5.26 ± 0.11 under setting [2].

With TRWLNSGRGDEASEEGQNGSSPKS [ADD1], the protein stability index by setting is: under setting [1], 5.4 ± 0.12; under setting [2], 5.44 ± 0.24.

Consider TSEQAPSSAPRDVQARMLSSTTIL [PTPRD], for which the protein stability index under setting [1] stood at 4.08 ± 0.15 and the protein stability index under setting [2] is 4.03 ± 0.38.

For TSGQVVAVKKFVESEDDPVVKKIA [CDKL4], the protein stability index stood at 4.66 ± 0.06 under setting [1] and 4.82 ± 0.35 under setting [2].

For TSLTALSLASASPPLSGRSTPKLT [PPFIA4], the protein stability index by setting is: under setting [1], 4.17 ± 0.08; under setting [2], 4.13 ± 0.12.

Sequence TTKGTSEMSEKRGPTSSNPRKRHR [MLH1] displayed a protein stability index under setting [1] of 5.14 ± 0.41 and a protein stability index under setting [2] of 5.04 ± 0.079.

Turning to TTLSFYGNSISISALQSLLQHLIG [PRAME], the protein stability index worked out at 2.82 ± 0.46 under setting [1] and 2.82 ± 0.48 under setting [2].

Consider TTNPHTSASHRPCVNGDVDKPSEP [SMG5], for which the protein stability index by setting is: under setting [1], 5.15 ± 0.23; under setting [2], 5.12 ± 0.14.

Take TTTLEGSPSVPCIFCEEHFPVAEQ [ZNF277]: the protein stability index under setting [1] worked out at 4.17 ± 0.27 and the protein stability index under setting [2] is 4.32 ± 0.26.

In the case of TTTVCLVAAALRYLQIFATRRSCI [FAM189A2], the protein stability index is, setting by setting: under setting [1], 2.98 ± 0.42; under setting [2], 2.89 ± 0.25.

In the case of TVAGSLNDFSYLHTNCFELSIYVG [CPXM2], the protein stability index is, setting by setting: under setting [1], 2.79 ± 0.78; under setting [2], 2.55 ± 0.7.

As to TVASMMHRQETVDCLKKFNARRKL [CAMK2D], the protein stability index under setting [1] came out at 3.17 ± 0.15 and the protein stability index under setting [2] is 3.73 ± 0.72.

As for TVPSAATSQPTPSQHSAHTSSQP [CCDC6], the protein stability index (treatment: DMSO, c terminus: native) was found to be 5.42 ± 0.23 and the protein stability index (treatment: MLN4924 1 uM, 8 h, c terminus: native) turned out to be 5.33 ± 0.15.

As to TVYNEMDKNRCELLSFLLLMDYIG [EDNRA], the protein stability index worked out at 2.09 ± 0.34 under setting [1] and 2.17 ± 0.5 under setting [2].

As for TYWEHWTSQGQVRMRLFGQRCQKC [RTP4], the protein stability index runs as follows: under setting [1], 2.33 ± 0.43; under setting [2], 2.72 ± 0.57.

Regarding VAIFGPPNTYYEGGYFKARLKFPI [CDC34], the protein stability index is 2.24 ± 0.41 under setting [1] and 2.58 ± 0.3 under setting [2].

Turning to VATTARHSAAYRADPLRVSSRDKL [FUNDC2], the protein stability index under setting [1] is 4.1 ± 0.096 and the protein stability index under setting [2] was found to be 4.1 ± 0.19.

Regarding VCDLQSLLGYTPEELHAMLDVKPD [ETS1], the protein stability index by setting is: under setting [1], 4.04 ± 0.21; under setting [2], 4.07 ± 0.12.

On to VCEEQKCEEEVFPLAMNYLDRFLS [CCND1], for which the protein stability index is, setting by setting: under setting [1], 3.59 ± 0.079; under setting [2], 3.8 ± 0.18.

As for VCSDKRIPGFKFDNSLINQIENLN [LOXL2], the protein stability index was determined as 2.56 ± 0.26 under setting [1] and 3.01 ± 0.25 under setting [2].

Take VDSPKNFNIAGTVVKYRRPMDVYE [ADAMTSL2]: the protein stability index was 3.44 ± 0.36 under setting [1] and 3.49 ± 0.54 under setting [2].

As to VEILDLNDNSPSFATPEREMRISE [PCDHGC5], the protein stability index is 4.08 ± 0.31 under setting [1] and 4.2 ± 0.28 under setting [2].

The sequence VEVISDTLSKPSPMPVSQECFETL [CHGA] gave a protein stability index under setting [1] of 3.85 ± 0.092 and a protein stability index under setting [2] of 3.87 ± 0.25.

In the case of VFDALESDHEMREEEKLKAEEIRI [KCNK9], the protein stability index is 5.27 ± 0.21 under setting [1] and 5.23 ± 0.17 under setting [2].

VGFIMAGTPMALIVISYIHVAAAV [OR3A1]: the protein stability index turned out to be 3.27 ± 0.35 under setting [1] and 2.87 ± 0.32 under setting [2].
